In patent publication CN115010810A (NANJING SANHOME PHARMACEUTICAL CO LTD, dated 2022):
Values belong to the binder of their own block, whether it stands above or below them.

Tests used:
[1] = biological target: 人PD-1-His蛋白 (自产; human PD-1 extracellular domain with His tag) (human, UniProt Q15116 25-170); assay: ELISA, human PD-1-His coated
[2] = biological target: T1, PD-1 on the surface of hPD-1-CHO-K1 cells (human, UniProt Q15116 25-288); assay: FACS on hPD-1-CHO-K1 cells
T1 construct: also called 细胞表面PD-1; CHO-K1-PD-1
T1 sequence (Q15116 25-288 limits assumed): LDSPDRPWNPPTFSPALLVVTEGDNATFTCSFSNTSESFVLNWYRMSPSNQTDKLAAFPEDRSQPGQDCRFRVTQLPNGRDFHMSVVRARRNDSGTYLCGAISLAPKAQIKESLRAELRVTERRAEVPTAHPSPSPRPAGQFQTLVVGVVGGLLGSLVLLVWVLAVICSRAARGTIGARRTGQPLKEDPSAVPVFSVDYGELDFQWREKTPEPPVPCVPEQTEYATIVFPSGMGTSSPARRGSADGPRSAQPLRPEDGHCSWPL

[3] = biological target: T2, 食蟹猴PD-1-His (SB, Cat.No.90311-C08H) (cynomolgus monkey); assay: ELISA, cynomolgus PD-1-His coated
T2 construct: Purchased protein; also called cynomolgus PD-1-His

[4] = biological target: T3, 人CTLA-4-His蛋白 (human CTLA-4 extracellular domain fused to His tag) (human, UniProt P16410 36-161); assay: ELISA, human CTLA-4-His coated
T3 construct: also called hCTLA-4-His
T3 sequence: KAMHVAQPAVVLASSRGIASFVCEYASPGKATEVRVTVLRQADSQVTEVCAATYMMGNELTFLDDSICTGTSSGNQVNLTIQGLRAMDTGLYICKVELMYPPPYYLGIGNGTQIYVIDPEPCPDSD

人PD-1-His蛋白 (自产; human PD-1 extracellular domain with His tag), sequence (Q15116 25-170 limits assumed): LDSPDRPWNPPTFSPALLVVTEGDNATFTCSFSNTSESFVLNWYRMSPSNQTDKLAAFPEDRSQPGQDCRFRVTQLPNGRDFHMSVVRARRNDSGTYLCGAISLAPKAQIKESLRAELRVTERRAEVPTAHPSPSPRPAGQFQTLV

EC50 [1]: 0.18 nM
EC50 [2]: 0.11 nM
EC50 [3]: 0.088 nM
B1: SHS006-HuP01-22 (antibody, V domains shown)
VH: QVQLVQSGAEVKKPGASVKVSCKASGYTFTWYHMSWVRQAPGQGLEYMGYINTRSGDTYYNEKFKGRVTMTTDTSTSTAYMELRSLRSDDTAVYYCARSGYGGSDYWGQGTLVTVSS
VL: DIVMTQSPDSLAVSLGERATINCKSSQNLLYSENKKNSLAWYQQKPGQPPKLLISWASTREFGVPDRFSGSGSGTDFTLTISSLQAEDVAVYYCEQYYDILPTFGGGTKVEIK
notes: also called SHS006-P01-22; 人源化抗PD-1抗体SHS006-HuP01-22

EC50 [4]: 0.01 nM
B2: HuC92-11 (antibody, V domains shown)
VH: QVQLVESGGGVVQPGRSLRLSCAASGFTFSNYAMSWVRQAPGKGLEWVAEISYSGTYSYHSDTVTGRFTISRDNSKNTLYLQMSSLRAEDTAVYYCTRRDYDNEMDYWGQGTLVTVSS
VL: DIQMTQSPSSLSASVGDRVTITCRTSQVITNYLNWYQQKPGKAPKLLIYYTSRLHSGVPSRFSGSGSGTDYTLTISSLQPEDFATYYCQQFGKRPPTFGGGTKVEIK
notes: also called SHS010-HuC92-11; 人源化抗CTLA-4抗体HuC92-11
